The values below come from PMC9506717.

The conditions of this data set: glycan lost.

In the case of Spike: N657Q, the expression_or_secretion entry is recorded as “no change”.
Turning to Spike: N801Q, the expression_or_secretion result is “no change” and the “other: Spike incorporation into virions” value was “decreases”.
With Spike: N603/657Q, the expression_or_secretion result was “no change”.
With Spike: N616Q, the expression_or_secretion entry is “no change” and the “other: viral entry” value is “decreases”.
Regarding Spike: N61/657Q, the expression_or_secretion entry is “no change” and the “other: Spike incorporation into virions” value was “decreases”.
With Spike: N61Q/N657Q, the “other: Spike incorporation into virions” value is recorded as “decreases”.
For the substance Spike: N61/603/657Q, the expression_or_secretion entry is “no change” and the “other: Spike incorporation into virions” value is recorded as “decreases”.
In the case of Spike: N603Q, the expression_or_secretion result is reported as “no change”.
Regarding Spike: N61/603/657 triple mutant, the “other: Spike incorporation into virions” value was “decreases”.
Turning to Spike: N61Q, the expression_or_secretion entry was “no change” and the “other: Spike incorporation into virions” value is reported as “decreases”.
